Measurements as given in patent publication US20140120095A1 (Boehringer Ingelheim, published 2014).
Positions count from the first letter of the chain named.

B1: DLLBII101H09 (VHH)
VHH: EVQLVESGGGLVQPGGSLRLSCAASGFTLGYYTIVWFRQAPGKERKGVSCISSRDGSRYYADSVKGRFTISRDNAKNTVYLRMNSLKPEDTAVYYCAAGPDCSSYDYWGQGTQVTVSS
B2: DLLBII112E07 (VHH)
VHH: EVQLVESGGGLVQAGGSLRLSCAASGRTVRSYATGWFRQAPGKEREFVAALRWSIGSIASVYYDDSVKGRFTISGDNAENTVYLQMNALKPEDTAIYYCASTTRGRYSALSASAYDYWGQGTQVTVSS
B3: DLLBII102F08 (VHH)
VHH: EVQLVESGGGLVQTGDSLRLSCAASGSTFSNYRMGWFRQGPGKEREFVAAIGRNGQNTYYTDSVKGRFTVTRDNAKNMVYLQMNSLKPEDSAVYTCAASLRGWDTTRIDYEYWGQGTQVTVSS
B4: DLLBII102G04 (VHH)
VHH: EVQLMESGGGLVQPGGSLRLSCAASGFTFSSYAMSWVRQAPGKGLEWVSRITSGGRTTYRDSVKGRFTISRDNSKNTLYLQMNSLKPEDTALYYCAKARGDIDVYTLSDSRGQGTQVTVSS
B5: DLLBII101H05 (VHH)
VHH: EVQLVESGGGSAQAGGSLRLSCAASGRTSSTYAMGWFRQAPGKEHEFVSAIGRGTGATSYGDSVKGRFTISRDNAKNTVYLQMNSLQLEDTGDYYCVAGRGFYHDYSSYEYRGQGTQVTVSS
B6: DLLBII112A04 (VHH)
VHH: EVQLVESGGGLVQAGGSLRLSCAAFGRTPYGMGWFRQAPGKEREFVAAITSDGSTNYADSVKGRFTISRDNAKNAVSLQMNSLKPEDTAVYYCTAPYYSDFEGTTTEYDYWGQGTQVTVSS
B7: DLLBII107C03 (VHH)
VHH: EVQLVESGGGLVQPGGSLRLSCEVSGSIGSVSDMRWYRQAPGLQYELVARITSGSITDYSDSVKGRFTISRDNAKNTVYLQMNSLKPEDTAVYYCNADVQHSAWLKPLTYWGQGTQVTVSS
B8: DLLBII104B05 (VHH)
VHH: EVQLVESGGGSVQAGGSLRLSCAASGSISRIDVMAWYRQAPGKERELVASISSGGSTNYADSVKGRFTISREYFKNMMYLQMNSLKFEDTAVYYCNADSRRGGVGNFFRSWGQGTQVTVSS
B9: DLLBII104A03 (VHH)
VHH: EVQLVESGGGLVQAGGSLRLSCAASGDIPRIAAMGWYRQAPGKQRELVATVSNAATTRYADSAKGRFTISRDNAKTVSLQMDNLKPEDTGVYYCYSLATTVTPSWVNYWGQGTQVTVSS
B10: DLLBII112A03 (VHH)
VHH: EVQLVESGGGLVQPGGSLRLSCAASGIRFSINGMGWYRQAPGKQREAVATITRGGIRDYTDSVKGRFTISRDIARNTVYLQMNNLKPEDSAVYYCNIDIYWGRGTQVTVSS
B11: DLLBII47D01 (VHH)
VHH: EVQLVESGGGLVQPGGSLRLSCAASGFTFDDYAIGWFRQAPGKEREGVSCISSSGSTYYADSVKGRFTISRDNAKNTVYLQMNSLKPEDTAVYYCAIAGASSWCFPPGYWGQGTQVTVSS
B12: DLLBII129H04 (VHH)
VHH: EVQLVESRGGLVQAGGSLRLSCAASGRTFSSYAMAWFRQAPGKEREYVAAIRWSGGTAYYADSVQGRFTISRDNAKNTVYLQMNSLKPEDTAVYYCANRAPDTRLEPYLYDHWGQGTQVTVSS
B13: DLLBII129G09 (VHH)
VHH: B12 VHH with R8G, F37Y, G56E
B14: DLLBII129E07 (VHH)
VHH: B12 VHH with R8G, A23S, F37Y, A61P, E106A, L109E
B15: DLLBII130D06 (VHH)
VHH: B12 VHH with R8G, A23S, F37Y, G56E
B16: DLLBII130E03 (VHH)
VHH: B12 VHH with R8G, F37Y, L109E
B17: DLLBII129D01 (VHH)
VHH: B12 VHH with R8G, G66S, S71T
B18: DLLBII129H02 (VHH)
VHH: B12 VHH with R8G, F37Y, E106R, L109E, H112Y
B19: DLLBII130A05 (VHH)
VHH: B12 VHH with R8G, F37Y, E106G
B20: DLLBII129G10 (VHH)
VHH: B12 VHH with R8G, F37Y, G66S, L109E
B21: DLLBII129E03 (VHH)
VHH: B12 VHH with R8G, E44D, E106A, H112Y
B22: DLLBII130B04 (VHH)
VHH: B12 VHH with R8G, E106R
B23: DLLBII129H05 (VHH)
VHH: B12 VHH with R8G, F37Y, Q39L, E106G, H112Y
B24: DLLBII130B02 (VHH)
VHH: B12 VHH with R8G, N84Y, E106A
B25: DLLBII129B02 (VHH)
VHH: B12 VHH with R8G, R19S, F37Y, L109E

Target: T1, mouse DLL4 overexpressed on cells (mouse, UniProt Q9JI71 27-686)
T1 construct: whole, on cells; also called CHO-mDLL4; CHO-mDII4
T1 sequence (Q9JI71 27-686): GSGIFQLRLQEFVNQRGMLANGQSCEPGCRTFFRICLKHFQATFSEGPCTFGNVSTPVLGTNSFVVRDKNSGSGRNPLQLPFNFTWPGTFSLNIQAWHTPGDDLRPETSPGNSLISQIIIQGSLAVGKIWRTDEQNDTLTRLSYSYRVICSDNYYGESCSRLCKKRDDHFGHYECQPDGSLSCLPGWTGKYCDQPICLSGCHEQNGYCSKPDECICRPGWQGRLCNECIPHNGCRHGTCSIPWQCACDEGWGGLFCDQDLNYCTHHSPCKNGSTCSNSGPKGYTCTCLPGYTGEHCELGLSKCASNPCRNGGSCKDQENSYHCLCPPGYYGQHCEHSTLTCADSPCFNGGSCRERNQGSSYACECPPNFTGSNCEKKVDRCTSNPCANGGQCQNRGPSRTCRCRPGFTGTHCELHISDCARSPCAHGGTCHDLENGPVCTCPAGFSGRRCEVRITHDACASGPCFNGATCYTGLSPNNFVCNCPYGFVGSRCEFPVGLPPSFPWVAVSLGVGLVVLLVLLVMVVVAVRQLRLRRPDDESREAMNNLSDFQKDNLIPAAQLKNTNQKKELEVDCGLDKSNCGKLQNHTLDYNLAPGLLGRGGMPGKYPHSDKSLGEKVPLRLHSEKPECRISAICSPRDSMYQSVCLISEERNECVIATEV
Experiment: FMAT, labelled hNotch1-Fc on CHO-mDLL4, periplasmic extract
Text: (§1) All calculations are based on the FL1_total signal which comprises the average of the fluorescence per well times the number of counts per well.

Going from B1 to B2, the “% inh” value rises from 75% to 85%.

Going from B3 to B4, the “% inh” value rises from 75% to 82%.

Going from B5 to B6, the “% inh” value rises from 83% to 90%.

Going from B7 to B8, the “% inh” value falls from 80% to 78%.

Going from B9 to B10, the “% inh” value rises from 83% to 97%.

Target: T2, human DLL4 overexpressed on cells (human, UniProt Q9NR61 27-685)
T2 construct: full length human DLL4 on CHO or HEK293 cells; also called CHO-hDLL4; CHO-hDII4
Experiment: FMAT, labelled hNotch1-Fc on CHO-hDLL4, periplasmic extract
Text: as §1

B11 and B1 are the same in “% inh” value: 87% for the first, 87% for the second.

Going from B2 to B3, the “% inh” value rises from 80% to 85%.

Going from B4 to B5, the “% inh” value falls from 86% to 85%.

B6 and B7 are the same in “% inh” value: 75% for the first, 75% for the second.

B8 and B9 are the same in “% inh” value: 86% for the first, 86% for the second.

In the case of B10, the “% inh” value is reported as 72%.

Target: T3, recombinant human DLL4 (C-terminally His-tagged extracellular domain, R&D Systems) (human, UniProt Q9NR61 25-522, biotinylated in the competition ELISA)
T3 construct: also called rhDLL4; hDLL4
Experiment: ProteOn off-rate screen, periplasmic extract, coated human DLL4
Description: (§2) In a first cycle, amino acid substitutions are introduced randomly in both framework (FW) and complementary determining regions (CDR) using the error-prone PCR method. […] After a polish step, PCR products are inserted via unique restriction sites into a vector designed to facilitate phage display of the VHH library. Consecutive rounds of in-solution selections are performed using decreasing concentrations of biotinylated recombinant human DLL4 (biot-rhDLL4) and trypsin elutions. Affinity-driven selections in a third round using cold rhDLL4 (at least 100× excess over biot-rhDLL4) are also performed. No selections on murine DLL4 are included as (conservation of) cross-reactivity is assessed at the screening level. Individual mutants are produced as recombinant protein using an expression vector derived from pUC119, which contains the LacZ promoter, a resistance gene for ampicillin, a multiple cloning site and an ompA leader sequence (pAX50). E. coliTG1 cells are transformed with the expression vector library and plated on agar plates (LB+Amp+2% glucose). Single colonies are picked from the agar plates and grown in 1 mL 96-deep-well plates. VHH expression is induced by adding IPTG (1 mM). Periplasmic extracts (in a volume of ˜80 uL) are prepared according to standard methods and screened for binding to recombinant human and mouse DII4 in a ProteOn (BioRad, Hercules, Calif., USA) off-rate assay. In brief, a GLC ProteOn Sensor chip is coated with recombinant human DII4 on the “ligand channels” L2 and L4 (with L1/L3 as reference channel), while “ligand channels” […] is coated with mouse DII4. Periplasmic extract of affinity-matured clones is diluted 1/10 and injected across the “analyte channels” A1-A6. An average off-rate is calculated of the wild type clones present in the plate and served as a reference to calculate off-rate improvements.

First: B12
Second: B13
The “fold (off-rate vs DLLBII101G08)” value of the first is higher: 33 fold for the first, 26 fold for the second.

Going from B14 to B15, the “fold (off-rate vs DLLBII101G08)” value rises from 21 fold to 26 fold.

Compared with B16, B17 is higher in “fold (off-rate vs DLLBII101G08)” value: 24 fold for the first, 26 fold for the second.

First: B18
Second: B19
The “fold (off-rate vs DLLBII101G08)” value of the first is lower: 23 fold for the first, 24 fold for the second.

Compared with B20, B21 is lower in “fold (off-rate vs DLLBII101G08)” value: 31 fold for the first, 20 fold for the second.

Compared with B22, B23 is higher in “fold (off-rate vs DLLBII101G08)” value: 22 fold for the first, 24 fold for the second.

Going from B24 to B25, the “fold (off-rate vs DLLBII101G08)” value rises from 23 fold to 30 fold.

B12 and B13 are within 1.5-fold of each other in koff: 6.8e-05 s⁻¹ for the first, 8.8e-05 s⁻¹ for the second.

First: B14
Second: B15
The koff of the first is 1.6-fold higher: 0.00011 s⁻¹ for the first, 6.9e-05 s⁻¹ for the second.

B16 and B17 are within 1.5-fold of each other in koff: 7.5e-05 s⁻¹ for the first, 8.5e-05 s⁻¹ for the second.

B18 and B19 are within 1.5-fold of each other in koff: 9.9e-05 s⁻¹ for the first, 7.5e-05 s⁻¹ for the second.

First: B20
Second: B21
The koff of the first is 1.5-fold lower: 7.3e-05 s⁻¹ for the first, 0.00011 s⁻¹ for the second.

B22 and B23 are within 1.5-fold of each other in koff: 8.3e-05 s⁻¹ for the first, 9.4e-05 s⁻¹ for the second.

B24 and B25 are within 1.5-fold of each other in koff: 7.8e-05 s⁻¹ for the first, 7.6e-05 s⁻¹ for the second.

Target: T4, recombinant mouse DLL4 (C-terminally His-tagged extracellular domain, R&D Systems) (mouse, UniProt Q9JI71 27-532)
T4 construct: extracellular domain; also called rmDLL4; mDLL4
T4 sequence (Q9JI71 27-532): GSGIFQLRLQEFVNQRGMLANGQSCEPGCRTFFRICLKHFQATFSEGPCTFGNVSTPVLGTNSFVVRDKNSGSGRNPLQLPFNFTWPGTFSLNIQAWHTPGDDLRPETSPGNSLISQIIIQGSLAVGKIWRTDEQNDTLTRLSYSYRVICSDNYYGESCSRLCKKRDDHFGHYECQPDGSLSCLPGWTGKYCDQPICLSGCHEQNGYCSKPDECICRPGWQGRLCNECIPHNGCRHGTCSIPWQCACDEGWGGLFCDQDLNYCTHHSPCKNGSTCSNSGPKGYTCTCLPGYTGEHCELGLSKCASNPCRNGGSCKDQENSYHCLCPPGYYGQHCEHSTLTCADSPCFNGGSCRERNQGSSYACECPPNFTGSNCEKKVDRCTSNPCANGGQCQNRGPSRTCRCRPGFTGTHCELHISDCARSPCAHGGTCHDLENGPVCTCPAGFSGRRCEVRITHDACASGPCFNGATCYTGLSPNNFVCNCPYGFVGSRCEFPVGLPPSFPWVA
Experiment: ProteOn off-rate screen, periplasmic extract, coated mouse DLL4
Description: as §2

Compared with B12, B13 is lower in “fold (off-rate vs DLLBII101G08)” value: 27 fold for the first, 20 fold for the second.

First: B14
Second: B15
The “fold (off-rate vs DLLBII101G08)” value of the first is higher: 24 fold for the first, 16 fold for the second.

First: B16
Second: B17
The “fold (off-rate vs DLLBII101G08)” value of the first is lower: 18 fold for the first, 26 fold for the second.

First: B18
Second: B19
The “fold (off-rate vs DLLBII101G08)” value of the first is higher: 19 fold for the first, 17 fold for the second.

First: B20
Second: B21
The “fold (off-rate vs DLLBII101G08)” value of the first is higher: 26 fold for the first, 18 fold for the second.

Compared with B22, B23 is higher in “fold (off-rate vs DLLBII101G08)” value: 17 fold for the first, 19 fold for the second.

First: B24
Second: B25
The “fold (off-rate vs DLLBII101G08)” value of the first is lower: 17 fold for the first, 26 fold for the second.

B12 and B13 are within 1.5-fold of each other in koff: 0.00025 s⁻¹ for the first, 0.00034 s⁻¹ for the second.

B14 and B15 are within 1.5-fold of each other in koff: 0.00028 s⁻¹ for the first, 0.00031 s⁻¹ for the second.

B16 and B17 are within 1.5-fold of each other in koff: 0.00027 s⁻¹ for the first, 0.00026 s⁻¹ for the second.

B18 and B19 are within 1.5-fold of each other in koff: 0.00034 s⁻¹ for the first, 0.0003 s⁻¹ for the second.

B20 and B21 are within 1.5-fold of each other in koff: 0.00026 s⁻¹ for the first, 0.00036 s⁻¹ for the second.

B22 and B23 are within 1.5-fold of each other in koff: 0.00029 s⁻¹ for the first, 0.00035 s⁻¹ for the second.

B24 and B25 are within 1.5-fold of each other in koff: 0.00029 s⁻¹ for the first, 0.00026 s⁻¹ for the second.
